Assay results reported in US20220226442A1.

Target: IL-2 receptors on the cell surface of human PBMC populations (Tregs, CD25^high T helper cells, NK cells, cytotoxic T cells)
Assay: cell-based or functional assay

Work on “IL-2-Fc fusion protein F42K/V69A/Q74P, (G4S)4 linker, IgG1 Fc N297G” yielded a Ratio (CD25^high T helper EC50 / Treg EC50) of 15.9.

In the case of “IL-2-Fc fusion protein F42Q/V69A/Q74P, (G4S)4 linker, IgG1 Fc N297G”, the Ratio (CD25^high T helper EC50 / Treg EC50) is reported as 25.9.

With “IL-2-Fc fusion protein K35E/V69A/Q74P, (G4S)4 linker, IgG1 Fc N297G” the Ratio (CD25^high T helper EC50 / Treg EC50) was 300.

Substance “IL-2-Fc fusion protein R38E/V69A/Q74P, (G4S)4 linker, IgG1 Fc N297G” has a Ratio (CD25^high T helper EC50 / Treg EC50) of 9.

Substance “IL-2-Fc fusion protein R38N/V69A/Q74P, (G4S)4 linker, IgG1 Fc N297G” has a Ratio (CD25^high T helper EC50 / Treg EC50) of 2820.

“IL-2-Fc fusion protein R38Q/V69A/Q74P, (G4S)4 linker, IgG1 Fc N297G” gave a Ratio (CD25^high T helper EC50 / Treg EC50) of 28.4.

“irrelevant (non-binding) antibody with IL-2 N88D fused to its C-terminus” was tested, and the pSTAT5 EC50, Treg was 0.37 nM and the pSTAT5 Max. Signal, Treg (relative to V69A/Q74P IL-2-Fc) was 0.5.
